Consider 1 molecule from patent US20200399391A1 (Sanofi, published 2020).

The target in experiment [1] is T1, FcγRIIa extracellular domain with H131, histag (Biorbyt, batch ORB138408) (human, UniProt P12318 34-217).
T1 construct: Bought protein; also called FcγRIIa H131; not shown: histag
T1 sequence: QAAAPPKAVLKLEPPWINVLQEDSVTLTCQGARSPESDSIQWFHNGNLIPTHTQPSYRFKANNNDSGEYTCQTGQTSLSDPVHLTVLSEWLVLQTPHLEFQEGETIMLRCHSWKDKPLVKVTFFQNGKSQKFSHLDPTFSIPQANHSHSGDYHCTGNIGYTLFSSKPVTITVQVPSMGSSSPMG
Description: AlphaScreen competition (relative IC50): untagged mAb displaces biotinylated anti-CD38 native IgG1 from FcγRIIa-histag. On the technique in general: Bead proximity is the source of the signal in Alpha formats.

For experiment [2], the target named is T2, FcγRIIa 131H expressed on HEK cells (human, UniProt P12318 34-317).
T2 sequence: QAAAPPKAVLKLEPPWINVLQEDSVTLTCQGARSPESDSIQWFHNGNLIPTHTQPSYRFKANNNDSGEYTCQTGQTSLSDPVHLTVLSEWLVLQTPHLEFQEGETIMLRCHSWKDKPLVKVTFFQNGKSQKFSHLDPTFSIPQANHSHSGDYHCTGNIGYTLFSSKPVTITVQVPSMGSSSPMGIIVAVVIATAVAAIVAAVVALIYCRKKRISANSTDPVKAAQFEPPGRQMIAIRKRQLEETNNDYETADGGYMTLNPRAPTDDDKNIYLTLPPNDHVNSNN
Description: flow cytometry on HEK293T cells expressing the receptor. A general note: A flow cytometer gives signals particle by particle.

Experiment [3] has as its target T3, FcγRIIIa (CD16a) extracellular domain with V158, C-terminal histag (human, UniProt P08637 17-208).
T3 construct: also called FcγRIIIa 158V; FcγRIIIa-histag; not shown: C-terminal histag
Description: SPR, against mAb 1. A general note: In SPR one partner is held on a chip, and binding of the other changes the refractive index at the surface.

Experiment [4] has as its target T4, FcγRI expressed on HEK cells (UniProt P12314 16-374, limits assumed).
T4 construct: whole, on cells; also called HEK293T-FcγRI
In words: flow cytometry on HEK293T cells expressing the receptor, FITC anti-human IgG; mean Kd.

In experiment [5] the target is T5, FcγRIIb expressed on HEK cells (UniProt P31994 43-310, limits assumed).
T5 construct: whole, on cells; also called HEK293T-FcγRIIb
T5 sequence (looked up): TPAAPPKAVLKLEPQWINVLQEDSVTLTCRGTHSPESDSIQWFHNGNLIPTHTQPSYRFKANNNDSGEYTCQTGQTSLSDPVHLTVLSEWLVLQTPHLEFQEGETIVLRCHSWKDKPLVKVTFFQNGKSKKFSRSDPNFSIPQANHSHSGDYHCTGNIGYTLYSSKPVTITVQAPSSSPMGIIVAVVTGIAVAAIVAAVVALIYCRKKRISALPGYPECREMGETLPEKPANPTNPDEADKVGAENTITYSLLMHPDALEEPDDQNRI
The description is as above.

In experiment [6] the target is T3, FcγRIIIa (CD16a) extracellular domain …. In words: SPR (BIAcore 2000), FcγRIIIa-histag captured on anti-His IgG, mAb 8-256 nM, two-state fit.
Experiment [7] shares this target. In words: SPR, another experiment.
Experiment [8] concerns the target T5, FcγRIIb expressed on HEK cells. In words: flow cytometry on HEK293T cells expressing the receptor; the text calls it fold lower affinity.
For experiment [9], the target named is T6, FcγRIIIa 158V expressed on cells (human, UniProt P08637 17-254).
T6 construct: also called HEK293T-FcγRIIIa-158V; FcγRIIIa (CD16a) 158V
In words: flow cytometry on HEK293T cells expressing the receptor.

The target of experiment [10] is T6, FcγRIIIa 158V expressed on cells. Description: cell-based or functional assay.
The target of experiment [11] is T4, FcγRI expressed on HEK cells. Description: flow cytometry on HEK293T cells expressing the receptor.
Experiment [12] deals with T6, FcγRIIIa 158V expressed on cells. In words: cell-based or functional assay. The source holds these as a separate data set.
Experiment [13] has as its target T2, FcγRIIa 131H expressed on HEK cells. In words: flow cytometry on HEK293T cells expressing the receptor, FITC anti-human IgG; mean Kd.
Experiment [14] has as its target T1, FcγRIIa extracellular domain with H131, …. In words: AlphaScreen competition, against mAb 1.
Experiment [15] deals with T6, FcγRIIIa 158V expressed on cells. In words: flow cytometry on HEK293T cells expressing the receptor, FITC anti-human IgG; mean apparent Kd.
The target is the same in experiment [16]. Description: cell-based or functional assay. This is another data set of the same source.

T3 sequence (P08637 17-208 F176V): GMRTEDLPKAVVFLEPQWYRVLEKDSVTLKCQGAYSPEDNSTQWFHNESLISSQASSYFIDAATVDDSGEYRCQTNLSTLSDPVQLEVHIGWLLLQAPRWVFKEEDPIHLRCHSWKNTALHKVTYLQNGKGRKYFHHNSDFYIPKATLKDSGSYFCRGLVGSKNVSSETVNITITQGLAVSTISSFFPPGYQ
T6 sequence (P08637 17-254 F176V limits assumed): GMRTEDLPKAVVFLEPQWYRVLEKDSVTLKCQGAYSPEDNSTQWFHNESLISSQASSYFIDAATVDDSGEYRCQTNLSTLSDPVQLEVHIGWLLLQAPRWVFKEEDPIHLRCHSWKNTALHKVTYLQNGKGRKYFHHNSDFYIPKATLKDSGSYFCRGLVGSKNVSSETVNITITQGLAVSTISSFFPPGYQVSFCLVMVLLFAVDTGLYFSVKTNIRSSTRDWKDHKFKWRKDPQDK
T4 sequence (P12314 16-374 limits assumed): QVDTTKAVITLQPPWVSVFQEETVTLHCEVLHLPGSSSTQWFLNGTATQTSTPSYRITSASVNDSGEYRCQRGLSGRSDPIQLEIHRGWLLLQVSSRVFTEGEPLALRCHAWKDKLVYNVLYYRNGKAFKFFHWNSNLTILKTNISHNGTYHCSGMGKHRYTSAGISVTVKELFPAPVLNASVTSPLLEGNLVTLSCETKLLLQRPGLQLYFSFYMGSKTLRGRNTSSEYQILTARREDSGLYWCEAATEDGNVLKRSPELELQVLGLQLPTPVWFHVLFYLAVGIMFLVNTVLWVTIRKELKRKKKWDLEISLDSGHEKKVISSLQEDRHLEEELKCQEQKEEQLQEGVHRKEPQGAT

B1: mAb 3 (antibody, human IgG1, kappa)
heavy: QVQLVQSGAEVAKPGTSVKLSCKASGYTFTDYWMQWVKQRPGQGLEWIGTIYPGDGDTGYAQKFQGKATLTADKSSKTVYMHLSSLASEDSAVYYCARGDYYGSNSLDYWGQGTSVTVSSASTKGPSVFPLAPSSKSTSGGTAALGCLVKDYFPEPVTVSWNSGALTSGVHTFPAVLQSSGLYSLSSVVTVPSSSLGTQTYICNVNHKPSNTKVDKKVEPKSCDKTHTCPPCPAPELLAGPDVFLFPPKPKDTLMISRTPEVTCVVVDVSHEDPEVKFNWYVDGVEVHNAKTKPREEQYNSTYRVVSVLTVLHQDWLNGKEYKCKVSNKALPAPEEKTISKAKGQPREPQVYTLPPSRDELTKNQVSLTCLVKGFYPSDIAVEWESNGQPENNYKTTPPVLDSDGSFFLYSKLTVDKSRWQQGNVFSCSVMHEALHNHYTQKSLSLSPG
light: DIVMTQSHLSMSTSLGDPVSITCKASQDVSTVVAWYQQKPGQSPRRLIYSASYRYIGVPDRFTGSGAGTDFTFTISSVQAEDLAVYYCQQHYSPPYTFGGGTKLEIKRTVAAPSVFIFPPSDEQLKSGTASVVCLLNNFYPREAKVQWKVDNALQSGNSQESVTEQDSKDSTYSLSSTLTLSKADYEKHKVYACEVTHQGLSSPVTKSFNRGEC
notes: also called HEAVY CHAIN 3 / LIGHT CHAIN 1
On to B1, for which, in experiment [1], the IC50 (in general, the concentration at which inhibition is half-maximal) was 15 nM. For the same molecule, the “difference in affinity versus mAb 1” value in experiment [2] stood at 5.3 fold; in experiment [8] it was 3.3 fold; in experiment [11], 1.6 fold. In addition, the “fold higher affinity than mAb 1” value in experiment [3] came out at 9 fold. Besides, the Kd in experiment [4] was 14.7 nM; in experiment [5], 222 nM; in experiment [6] it was 50 nM; in [7], 75 nM; in [13] it was 222 nM; in [15], 32 nM. In experiment [9], the “Fold difference in affinity versus mAb 1” value was 5.2 fold. For the same molecule, in experiment [10], the “ADCC of MOLP-8 cells, EC50 (calcein release)” value was 0.14 ng/mL. The “ADCC of RPMI-8226 cells, EC50 (calcein release)” value in experiment [12] was 0.09 ng/mL. Further, in experiment [14], the “fold higher affinity compared to mAb 1” value was greater than 18 fold. Further, the “ADCC of KMS-12BM cells, EC50 (calcein release)” value in experiment [16] is 0.6 ng/mL.
